Measurements from patent publication US20090203610A1, “METHODS OF TREATING OBESITY OR DIABETES USING NT-4/5” (RINAT NEUROSCIENCE CORPORATION, priority 2004, published 2009).

System: db/db mice
Experiment: Non-fasting serum glucose after single injection in db/db mice (Example 7)
Assay type: in vivo
Settings: after 4 days; single subcutaneous injection, 5 mg/kg
Description: Test animals: 30 female db/db mice at 7 weeks of age weighing in the range of 27-34 g were used in this study.
Administration of NT-4/5 and pegylated NT-4/5: Wild type NT-4/5 was obtained from Genentech Inc. The mice were divided into 5 groups of equivalent body weight distribution (6 mice per group). Each group received on the first day (day 1) of the study one and the only dose of either vehicle, 5 mg/kg of NT-4/5 produced as described above, 5 mg/kg of 2PEG-NT4-G1S, or 5 mg/kg of 1PEG-NT4-G1S. 2PEG-NT4-G1S represents one PEG molecule was conjugated to each NT-4/5 monomer in a NT-4/5 dimer, and 1PEG-NT4-G1S represents one PEG molecule was conjugated to only one monomer of the NT-4/5 dimer. 2PEG-NT4-G1S and 1PEG-NT4-G1S were separated by ion exchange. Four days before starting the treatment (day −4), blood samples were collected from the mice as described previously for the determination of baseline levels of serum glucose. On day 4 after the treatment started, blood samples were collected again to determine serum glucose level. Body weight and food intake were monitored 5 days a week through out the entire study.

B1: NT-4/5: mature human neurotrophin-4/5 (SEQ ID NO:1), obtained from Genentech or produced in E. coli (protein, listed as Homo sapiens)
chain: GVSETAPASRRGELAVCDAVSGWVTDRRTAVDLRGREVEVLGEVPAAGGSPLRQYFFETRCKADNAEEGGPGAGGGGCRGVDRRHWVSECKAKQSYVRALTADAQGRVGWRWIRIDTACVCTLLSRTGRA
non-fasting serum glucose levels: showed a tendency to reduce
